This passage reports Kd and dH results from PMC7221964, “Comparison of Molecular Recognition of Trimethyllysine and Trimethylthialysine by Epigenetic Reader Proteins” (Molecules, 2020).

Ends that are not written are not given here.

Holding throughout (experiment): ITC; 19 injections of histone peptide (0.3–1.2 mM) into reader protein (22–100 µM), 298.15 K, same buffer as used in size exclusion chromatography, one-site fit, 3–5 repeats
Details in all cases: both partners purified

One assay addresses T1, TAF3 PHD reader domain (human, UniProt Q5VWG9 855-915).
T1 sequence: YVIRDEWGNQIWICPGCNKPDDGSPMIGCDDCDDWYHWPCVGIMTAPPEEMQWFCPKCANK

In the next assay the target is T2, KDM5A PHD3 reader domain (human, UniProt P29375 1609-1659).
T2 construct: KDM5A, human, third PHD zinc finger (PHD3)
T2 sequence: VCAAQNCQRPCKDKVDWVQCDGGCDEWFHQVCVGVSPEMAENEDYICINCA

Assay [1] concerns the target T3, KDM4A tandem tudor domain (TTD) reader (human, UniProt O75164 895-1011).
T3 construct: KDM4A, human, tandem tudor domain; also called KDM4ATTD
T3 sequence: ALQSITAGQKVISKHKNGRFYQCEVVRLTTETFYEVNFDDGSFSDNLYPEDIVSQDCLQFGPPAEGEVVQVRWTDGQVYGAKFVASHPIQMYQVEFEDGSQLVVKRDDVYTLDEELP

The target of another assay is BPTF PHD reader domain (human, UniProt Q12830 2865-3033).
Assay [2] addresses T4, SGF29 tandem tudor domain (TTD) reader (human, UniProt Q96ES7 115-293).
T4 construct: SGF29, human, tandem tudor domain; also called SGF29TTD
T4 sequence: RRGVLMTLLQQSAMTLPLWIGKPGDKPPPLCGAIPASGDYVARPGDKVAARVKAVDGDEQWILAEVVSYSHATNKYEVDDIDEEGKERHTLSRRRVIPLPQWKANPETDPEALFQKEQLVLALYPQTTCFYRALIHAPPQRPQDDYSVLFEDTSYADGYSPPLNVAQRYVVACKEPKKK

As a reminder, the Kd is a measure of binding affinity in units of concentration.

B1: 10-mer histone H3 peptide bearing trimethyllysine at position 4 (H3K4me3) (peptide)
peptide: ARTKQTARKS
modifications: trimethyllysine (Kme3) at position 4
notes: histone H3, residues 1-10, printed as ART(Kme3/KCme3)QTARKS; also called 1–10 H3K4me3; source: synthetic peptide (solid-phase peptide synthesis, preparative HPLC)
On to B1, for which the Kd in the assay with TAF3 PHD reader domain was 84 ± 12 nM; with KDM5A PHD3 reader domain, 71 ± 8 nM; in assay [1] it was 6600 ± 800 nM; in assay [2], 2600 ± 300 nM. Also, the dH with TAF3 PHD reader domain was -10.7 ± 0.1 kcal/mol; with KDM5A PHD3 reader domain it was -10.7 ± 0.1 kcal/mol; in assay [1] it was -13 ± 0.2 kcal/mol; in the assay with BPTF PHD reader domain, -12.4 ± 0.1 kcal/mol; in assay [2] it was -8 ± 0.1 kcal/mol.

B2: 10-mer histone H3 peptide bearing trimethylthialysine at position 4 (H3KC4me3) (peptide)
peptide: ARTCQTARKS
modifications: not fully specified (residue 4)
notes: histone H3, residues 1-10, printed as ART(Kme3/KCme3)QTARKS; position 4 is a cysteine alkylated to trimethylthialysine; The letter C at position 4 stands for the alkylated cysteine (trimethylthialysine), not a free cysteine; also called 1–10 H3KC4me3
With B2, the Kd with TAF3 PHD reader domain stood at 42 ± 7 nM; in the assay with KDM5A PHD3 reader domain, 150 ± 200 nM; in assay [1], 3100 ± 600 nM; in the assay with BPTF PHD reader domain, 3800 ± 500 nM; in assay [2], 6100 ± 700 nM. For the same molecule, the dH with TAF3 PHD reader domain was -10.8 ± 0.1 kcal/mol; in the assay with KDM5A PHD3 reader domain, -9.6 ± 0.1 kcal/mol; in assay [1], -14.8 ± 0.2 kcal/mol; in the assay with BPTF PHD reader domain, -9 ± 0.1 kcal/mol; in assay [2], -5.8 ± 0.1 kcal/mol.
